Each block holds one molecule with its values, some of them ahead of it.
Target: Human IgM (Homo sapiens, UniProt P01871)
Assay: IgM binding assay (human IgM)

Sequence of Human IgM (P01871 1-433 limits assumed): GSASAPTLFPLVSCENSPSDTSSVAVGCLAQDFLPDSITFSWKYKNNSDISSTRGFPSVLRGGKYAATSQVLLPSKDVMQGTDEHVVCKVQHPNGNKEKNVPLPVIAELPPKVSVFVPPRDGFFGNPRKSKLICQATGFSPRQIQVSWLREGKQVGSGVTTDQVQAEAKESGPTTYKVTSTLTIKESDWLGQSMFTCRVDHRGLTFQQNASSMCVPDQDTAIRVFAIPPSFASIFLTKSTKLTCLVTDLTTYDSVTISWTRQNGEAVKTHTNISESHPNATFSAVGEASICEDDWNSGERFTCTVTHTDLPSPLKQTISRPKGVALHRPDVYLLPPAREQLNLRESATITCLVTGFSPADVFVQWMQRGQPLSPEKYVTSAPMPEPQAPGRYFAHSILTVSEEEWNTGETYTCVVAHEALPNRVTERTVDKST
Sequence of Human IgM (P01591 23-159 partner): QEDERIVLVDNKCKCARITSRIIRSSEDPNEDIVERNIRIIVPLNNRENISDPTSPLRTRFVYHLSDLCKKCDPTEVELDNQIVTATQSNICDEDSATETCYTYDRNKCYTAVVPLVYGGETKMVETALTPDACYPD

- potency in human IgM binding assay: highest potency
B1: DVD3767: DVD-Ig: VD1 hIgM (HB-57.3), SS linker, VD2 DNA (PA4); heavy SEQ ID NO 78, light 79 (antibody)
heavy: QVQLQQPGAEFVKPGAPVKLSCKASGYPFTTYWVNWMKQRPGRGLEWIGRIDPYDSETLYNQKFKDKATLTVDKSSSTAYIQLSSLTSEDSAVYYCARETYDYPFAYWGQGTLVTVSSASTKGPEVQLVESGGGLVKPGGSLKLSCVASGFTFSTYAMSWVRQTPTKRLEWVATISRGGVSTYYPDTVKGRFTISRDNAKNTLYLQMSSLRSEDTAMYYCARPPTIVTTWFAYWGQGTLVTVSS
light: DIVMTQSPSSLAMSVGQKVTMSCKSSQSLLNSSNQKNYLAWYQQKPGQSPELLVYFASTRESGVPDRFIGSGSGTDFTLTISSVQAEDLADYFCQQHYSTPFTFGSETKLEIKRTVAAPDVVMTQTPLSLPVSLGDQASISCRSSQSLVHSNGNTYLHWYLQKPGQSPKLLIYKVSNRFSGVPDRFSGSGSGTDFTLKISRVEAEDLGAYFCSQSTHVPYTFGGPTRLEIKR

- potency in human IgM binding assay: highest potency
B2: DVD3769: DVD-Ig: VD1 hIgM (HB-57.3), SL linker, VD2 DNA (PA4); heavy SEQ ID NO 80, light 81 (antibody)
heavy: B1 heavy
light: DIVMTQSPSSLAMSVGQKVTMSCKSSQSLLNSSNQKNYLAWYQQKPGQSPELLVYFASTRESGVPDRFIGSGSGTDFTLTISSVQAEDLADYFCQQHYSTPFTFGSETKLEIKRTVAAPSVFIFPPDVVMTQTPLSLPVSLGDQASISCRSSQSLVHSNGNTYLHWYLQKPGQSPKLLIYKVSNRFSGVPDRFSGSGSGTDFTLKISRVEAEDLGAYFCSQSTHVPYTFGGPTRLEIKR

From patent US20150125397A1, “DUAL SPECIFIC BINDING PROTEINS DIRECTED AGAINST IMMUNE CELL RECEPTORS AND AUTOANTIGENS” (ABBVIE INC., priority 2013, published 2015)
